In patent publication US20140087995A1 (published 2014):
Numbered stars: 1 amine (or outer) side, 2 acyl side, 3 side chain; on linkers, the order of the positions; unused ones are H or OH. Bridge positions count the residues as written; N and C are the ends. Side chains are listed from the residue outwards. Ends that are not written are not given here. * marks the point of attachment. C20 diacid = O=C(O)CCCCCCCCCCCCCCCCCCC(=O)*; γGlu = O=C(O)[C@H](CCC(=O)[*:2])N[*:1]

T1: human amylin 3(a) receptor (human calcitonin receptor co-expressed with RAMP-3) (human, UniProt P30988 25-474; O60896 24-148, limits assumed)
T1 sequence (looked up) 1: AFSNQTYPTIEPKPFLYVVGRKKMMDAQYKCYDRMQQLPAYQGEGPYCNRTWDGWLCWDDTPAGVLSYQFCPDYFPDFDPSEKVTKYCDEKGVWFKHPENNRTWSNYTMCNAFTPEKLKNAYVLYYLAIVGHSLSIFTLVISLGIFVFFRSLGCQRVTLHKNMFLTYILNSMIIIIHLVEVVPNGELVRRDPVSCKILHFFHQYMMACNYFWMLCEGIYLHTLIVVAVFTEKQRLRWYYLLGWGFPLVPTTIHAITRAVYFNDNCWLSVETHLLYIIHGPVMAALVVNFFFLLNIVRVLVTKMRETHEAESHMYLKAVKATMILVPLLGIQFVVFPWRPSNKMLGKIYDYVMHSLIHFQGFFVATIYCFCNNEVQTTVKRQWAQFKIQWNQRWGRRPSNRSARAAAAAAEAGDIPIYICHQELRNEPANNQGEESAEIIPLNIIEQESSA
T1 sequence (looked up) 2: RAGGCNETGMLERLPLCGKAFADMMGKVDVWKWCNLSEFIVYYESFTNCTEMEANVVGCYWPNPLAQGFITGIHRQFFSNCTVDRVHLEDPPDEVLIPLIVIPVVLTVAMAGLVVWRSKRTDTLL


Molecular target: T1, human amylin 3(a) receptor (human …)
Test: cell-based or functional assay

Ratio hCT/hAmylin funct. (hCTR EC50 over hAmylin-R EC50)	hAmylin-R funct. EC50 (pM)	Binder
41.6	405 pM	K([γGlu-C20 diacid])CNTATCATQRLARFLRHSSPNFGAIPSSTNVGSNTY-NH2 (disulfide 2-7; N-terminus assumed; SMILES CC[C@H](C)[C@H](NC(=O)[C@H](C)NC(=O)CNC(=O)[C@H](Cc1ccccc1)NC(=O)[C@H](CC(N)=O)NC(=O)[C@@H]1CCCN1C(=O)[C@H](CO)NC(=O)[C@H](CO)NC(=O)[C@H](Cc1c[nH]cn1)NC(=O)[C@H](CCCNC(=N)N)NC(=O)[C@H](CC(C)C)NC(=O)[C@H](Cc1ccccc1)NC(=O)[C@H](CCCNC(=N)N)NC(=O)[C@H](C)NC(=O)[C@H](CC(C)C)NC(=O)[C@H](CCCNC(=N)N)NC(=O)[C@H](CCC(N)=O)NC(=O)[C@@H](NC(=O)[C@H](C)NC(=O)[C@@H]1CSSC[C@H](NC(=O)[C@@H](N)CCCCNC(=O)CC[C@H](NC(=O)CCCCCCCCCCCCCCCCCCC(=O)O)C(=O)O)C(=O)N[C@@H](CC(N)=O)C(=O)N[C@@H]([C@@H](C)O)C(=O)N[C@@H](C)C(=O)N[C@@H]([C@@H](C)O)C(=O)N1)[C@@H](C)O)C(=O)N1CCC[C@H]1C(=O)N[C@@H](CO)C(=O)N[C@@H](CO)C(=O)N[C@H](C(=O)N[C@@H](CC(N)=O)C(=O)N[C@H](C(=O)NCC(=O)N[C@@H](CO)C(=O)N[C@@H](CC(N)=O)C(=O)N[C@H](C(=O)N[C@@H](Cc1ccc(O)cc1)C(N)=O)[C@@H](C)O)C(C)C)[C@@H](C)O, also called compound 83) [N^ε1-[(4S)-4-carboxy-4-(19-carboxynonadecanoylamino)butanoyl]-[Arg14,Arg17,Pro21,Pro27]-h-amylin]
22.6	133 pM	K([γGlu-C20 diacid])CNTATCATQRLANFLRHSSPNFGAIPSSTNVGSETY-NH2 (disulfide 2-7; N-terminus assumed; SMILES CC[C@H](C)[C@H](NC(=O)[C@H](C)NC(=O)CNC(=O)[C@H](Cc1ccccc1)NC(=O)[C@H](CC(N)=O)NC(=O)[C@@H]1CCCN1C(=O)[C@H](CO)NC(=O)[C@H](CO)NC(=O)[C@H](Cc1c[nH]cn1)NC(=O)[C@H](CCCNC(=N)N)NC(=O)[C@H](CC(C)C)NC(=O)[C@H](Cc1ccccc1)NC(=O)[C@H](CC(N)=O)NC(=O)[C@H](C)NC(=O)[C@H](CC(C)C)NC(=O)[C@H](CCCNC(=N)N)NC(=O)[C@H](CCC(N)=O)NC(=O)[C@@H](NC(=O)[C@H](C)NC(=O)[C@@H]1CSSC[C@H](NC(=O)[C@@H](N)CCCCNC(=O)CC[C@H](NC(=O)CCCCCCCCCCCCCCCCCCC(=O)O)C(=O)O)C(=O)N[C@@H](CC(N)=O)C(=O)N[C@@H]([C@@H](C)O)C(=O)N[C@@H](C)C(=O)N[C@@H]([C@@H](C)O)C(=O)N1)[C@@H](C)O)C(=O)N1CCC[C@H]1C(=O)N[C@@H](CO)C(=O)N[C@@H](CO)C(=O)N[C@H](C(=O)N[C@@H](CC(N)=O)C(=O)N[C@H](C(=O)NCC(=O)N[C@@H](CO)C(=O)N[C@@H](CCC(=O)O)C(=O)N[C@H](C(=O)N[C@@H](Cc1ccc(O)cc1)C(N)=O)[C@@H](C)O)C(C)C)[C@@H](C)O, also called compound 27) [N^ε1-[(4S)-4-carboxy-4-(19-carboxynonadecanoylamino)butanoyl]-[Arg17,Pro21,Pro27,Glu35]-h-amylin]
15.3	351 pM	K([γGlu-C20 diacid])CNTATCATQRLANFLRHSSPNFGAIPSSTNVGSHTY-NH2 (disulfide 2-7; N-terminus assumed; SMILES CC[C@H](C)[C@H](NC(=O)[C@H](C)NC(=O)CNC(=O)[C@H](Cc1ccccc1)NC(=O)[C@H](CC(N)=O)NC(=O)[C@@H]1CCCN1C(=O)[C@H](CO)NC(=O)[C@H](CO)NC(=O)[C@H](Cc1c[nH]cn1)NC(=O)[C@H](CCCNC(=N)N)NC(=O)[C@H](CC(C)C)NC(=O)[C@H](Cc1ccccc1)NC(=O)[C@H](CC(N)=O)NC(=O)[C@H](C)NC(=O)[C@H](CC(C)C)NC(=O)[C@H](CCCNC(=N)N)NC(=O)[C@H](CCC(N)=O)NC(=O)[C@@H](NC(=O)[C@H](C)NC(=O)[C@@H]1CSSC[C@H](NC(=O)[C@@H](N)CCCCNC(=O)CC[C@H](NC(=O)CCCCCCCCCCCCCCCCCCC(=O)O)C(=O)O)C(=O)N[C@@H](CC(N)=O)C(=O)N[C@@H]([C@@H](C)O)C(=O)N[C@@H](C)C(=O)N[C@@H]([C@@H](C)O)C(=O)N1)[C@@H](C)O)C(=O)N1CCC[C@H]1C(=O)N[C@@H](CO)C(=O)N[C@@H](CO)C(=O)N[C@H](C(=O)N[C@@H](CC(N)=O)C(=O)N[C@H](C(=O)NCC(=O)N[C@@H](CO)C(=O)N[C@@H](Cc1c[nH]cn1)C(=O)N[C@H](C(=O)N[C@@H](Cc1ccc(O)cc1)C(N)=O)[C@@H](C)O)C(C)C)[C@@H](C)O, also called compound 60) [N^ε1-[(4S)-4-carboxy-4-(19-carboxynonadecanoylamino)butanoyl]-[Arg17,Pro21,Pro27,His35]-h-amylin]
15	364 pM	K([γGlu-C20 diacid])CNTATCATQRLANFLRHSSPNFGAIPSSTNVGSKTY-NH2 (disulfide 2-7; N-terminus assumed; SMILES CC[C@H](C)[C@H](NC(=O)[C@H](C)NC(=O)CNC(=O)[C@H](Cc1ccccc1)NC(=O)[C@H](CC(N)=O)NC(=O)[C@@H]1CCCN1C(=O)[C@H](CO)NC(=O)[C@H](CO)NC(=O)[C@H](Cc1c[nH]cn1)NC(=O)[C@H](CCCNC(=N)N)NC(=O)[C@H](CC(C)C)NC(=O)[C@H](Cc1ccccc1)NC(=O)[C@H](CC(N)=O)NC(=O)[C@H](C)NC(=O)[C@H](CC(C)C)NC(=O)[C@H](CCCNC(=N)N)NC(=O)[C@H](CCC(N)=O)NC(=O)[C@@H](NC(=O)[C@H](C)NC(=O)[C@@H]1CSSC[C@H](NC(=O)[C@@H](N)CCCCNC(=O)CC[C@H](NC(=O)CCCCCCCCCCCCCCCCCCC(=O)O)C(=O)O)C(=O)N[C@@H](CC(N)=O)C(=O)N[C@@H]([C@@H](C)O)C(=O)N[C@@H](C)C(=O)N[C@@H]([C@@H](C)O)C(=O)N1)[C@@H](C)O)C(=O)N1CCC[C@H]1C(=O)N[C@@H](CO)C(=O)N[C@@H](CO)C(=O)N[C@H](C(=O)N[C@@H](CC(N)=O)C(=O)N[C@H](C(=O)NCC(=O)N[C@@H](CO)C(=O)N[C@@H](CCCCN)C(=O)N[C@H](C(=O)N[C@@H](Cc1ccc(O)cc1)C(N)=O)[C@@H](C)O)C(C)C)[C@@H](C)O, also called compound 35) [N^ε1-[(4S)-4-carboxy-4-(19-carboxynonadecanoylamino)butanoyl]-[Arg17,Pro21,Pro27,Lys35]-h-amylin]
37.3	145 pM	K([γGlu-C20 diacid])CNTATCATQRLANFLRHSSPNFGAIPSSTNVGHNTY-NH2 (disulfide 2-7; N-terminus assumed; SMILES CC[C@H](C)[C@H](NC(=O)[C@H](C)NC(=O)CNC(=O)[C@H](Cc1ccccc1)NC(=O)[C@H](CC(N)=O)NC(=O)[C@@H]1CCCN1C(=O)[C@H](CO)NC(=O)[C@H](CO)NC(=O)[C@H](Cc1c[nH]cn1)NC(=O)[C@H](CCCNC(=N)N)NC(=O)[C@H](CC(C)C)NC(=O)[C@H](Cc1ccccc1)NC(=O)[C@H](CC(N)=O)NC(=O)[C@H](C)NC(=O)[C@H](CC(C)C)NC(=O)[C@H](CCCNC(=N)N)NC(=O)[C@H](CCC(N)=O)NC(=O)[C@@H](NC(=O)[C@H](C)NC(=O)[C@@H]1CSSC[C@H](NC(=O)[C@@H](N)CCCCNC(=O)CC[C@H](NC(=O)CCCCCCCCCCCCCCCCCCC(=O)O)C(=O)O)C(=O)N[C@@H](CC(N)=O)C(=O)N[C@@H]([C@@H](C)O)C(=O)N[C@@H](C)C(=O)N[C@@H]([C@@H](C)O)C(=O)N1)[C@@H](C)O)C(=O)N1CCC[C@H]1C(=O)N[C@@H](CO)C(=O)N[C@@H](CO)C(=O)N[C@H](C(=O)N[C@@H](CC(N)=O)C(=O)N[C@H](C(=O)NCC(=O)N[C@@H](Cc1c[nH]cn1)C(=O)N[C@@H](CC(N)=O)C(=O)N[C@H](C(=O)N[C@@H](Cc1ccc(O)cc1)C(N)=O)[C@@H](C)O)C(C)C)[C@@H](C)O, also called compound 77) [N^ε1-[(4S)-4-carboxy-4-(19-carboxynonadecanoylamino)butanoyl]-[Arg17,Pro21,Pro27,His34]-h-amylin]
24.5	161 pM	K([γGlu-C20 diacid])CNTATCATQRLANFLRHSSPNFGAIPSSTNVGRNTY-NH2 (disulfide 2-7; N-terminus assumed; SMILES CC[C@H](C)[C@H](NC(=O)[C@H](C)NC(=O)CNC(=O)[C@H](Cc1ccccc1)NC(=O)[C@H](CC(N)=O)NC(=O)[C@@H]1CCCN1C(=O)[C@H](CO)NC(=O)[C@H](CO)NC(=O)[C@H](Cc1c[nH]cn1)NC(=O)[C@H](CCCNC(=N)N)NC(=O)[C@H](CC(C)C)NC(=O)[C@H](Cc1ccccc1)NC(=O)[C@H](CC(N)=O)NC(=O)[C@H](C)NC(=O)[C@H](CC(C)C)NC(=O)[C@H](CCCNC(=N)N)NC(=O)[C@H](CCC(N)=O)NC(=O)[C@@H](NC(=O)[C@H](C)NC(=O)[C@@H]1CSSC[C@H](NC(=O)[C@@H](N)CCCCNC(=O)CC[C@H](NC(=O)CCCCCCCCCCCCCCCCCCC(=O)O)C(=O)O)C(=O)N[C@@H](CC(N)=O)C(=O)N[C@@H]([C@@H](C)O)C(=O)N[C@@H](C)C(=O)N[C@@H]([C@@H](C)O)C(=O)N1)[C@@H](C)O)C(=O)N1CCC[C@H]1C(=O)N[C@@H](CO)C(=O)N[C@@H](CO)C(=O)N[C@H](C(=O)N[C@@H](CC(N)=O)C(=O)N[C@H](C(=O)NCC(=O)N[C@@H](CCCNC(=N)N)C(=O)N[C@@H](CC(N)=O)C(=O)N[C@H](C(=O)N[C@@H](Cc1ccc(O)cc1)C(N)=O)[C@@H](C)O)C(C)C)[C@@H](C)O, also called compound 79) [N^ε1-[(4S)-4-carboxy-4-(19-carboxynonadecanoylamino)butanoyl]-[Arg17,Pro21,Pro27,Arg34]-h-amylin]
